Assay results: the supplement of paper PMC10567573

B1: SCNN1D (parent)
chain: FYRLYQDLETHRLPCTSRCPRPCR

Variants of: B1
Experiment: protein stability index of a GFP-peptide fusion (GPS, HEK-293T) (PSI 1-6); higher = more stable
Details: c terminus: a fixed tail appended
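Also: lentivirally expressed fusions sorted by FACS into six bins by GFP to DsRed ratio, PSI derived from sequencing read proportions per bin multiplied by bin number.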

Protein stability index: each site, then its substitutions
D7: P 2.44; T 2.09; C 1.72; Y 1.66; E 2.3; I 3.21; A 1.32; V 1.98; G 2.3; M 1.39; L 1.76
L4: C 1.56; I 2.41; E 4.13; G 3.51; M 2.34; N 3.29; Y 2.14; H 3.23; S 3.46; A 3.02; T 2.79; F 2.04; Q 3.24
C19: E 2.66; L 2.68; W 3.18; H 1.84; V 2.1; S 2.09; F 2.65; Y 1.88; A 1.94; N 3.89; M 2.06; T 3.26; K 1.96; P 2.03; G 2.32; I 2.64; D 2.03
R21: F 1.96; N 1.68; E 2.22; W 2.46; P 2.26; V 1.63; T 2.1; G 2.71; M 1.25; S 1.88; D 1.83; Y 2.71; L 2.21
S17: P 2.46; T 2.61; V 4.43; F 1.75; L 1.5; N 2.15; G 1.96; E 2.43; M 1.86; Q 2.45; K 1.96; Y 2.09; I 1.85; H 2.33; R 2.56
Y2: G 2.74; F 2.22; H 1.59; I 2.27; P 2.85; W 2.75; V 2.97; K 2.41; E 4.26; A 2.69; Q 1.98; R 2.58; M 2.4; D 3.56; C 1.55; T 1.81; L 1.55
R18: G 2.54; L 1.86; F 1.79; C 1.51; V 1.4; S 1.94; M 2.29; N 2.18; T 2.15
R3: L 2; C 1.98; E 2.63; Q 2.71; V 2.04; D 2.71; T 2.65; G 2.65; I 1.95; M 2.09; A 2.32
F1: S 3.2; T 3.46; W 2.91; H 3.06; V 2.13; Y 2.4; Q 2.71; P 3.59; G 4.3; L 1.54; M 2.02; A 2.87; R 2.92; C 2.22; N 3.47; E 3.71
L13: N 2.23; H 2.38; E 3.25; Q 2.03; F 2.33; M 2.24; C 1.85; S 2.67; I 2.38; Y 1.72; K 2.63; T 2.97; G 2.66
E9: K 2.38; Y 1.5; L 2.8; N 1.6; C 1.66; I 2.06; F 1.46; M 2.87; S 1.94; W 1.08; R 1.58; V 2.29; T 1.65; H 2.25; Q 1.83; P 2.05; A 2.06; G 1.57
H11: K 1.96; N 1.93; S 2.21; Y 1.97; R 2.48; T 2.79; L 1.95; D 2.24; F 1.64; V 1.98; A 2.31; P 2; M 1.74; E 2.31
P14: S 2.44; F 1.79; Y 1.45; G 2.3; M 1.6; A 2.01; E 2.39; V 1.47; H 1.97; T 1.76; W 1.57; Q 1.94; K 1.89; D 2.06
T16: N 2.21; H 1.49; L 1.82; P 1.11; Q 1.98; I 1.62; V 1.94; M 2.1; E 2.5; Y 1.6; K 1.9; G 1.93; C 1.66; A 1.98; D 2.79; S 1.82; W 1.51
T10: P 2.03; S 1.6; C 1.94; M 1.86; L 2.29; Y 1.6; Q 2.3; K 2.47; A 2.27; F 1.21; N 2.4; V 1.52
C15: A 2.07; T 2; M 1.73; W 1.75; S 2.64; I 2.48; F 2.71; H 2.28; Y 1.8; Q 1.76; G 2.47; R 2.3
Y5: F 1.98; V 1.88; A 4.45; M 2.29; D 3.64; N 3.29; L 3.17; E 3.17; H 2.92; W 2.08; C 2.13; Q 2.81; P 3.49; S 2.57; R 2.02; K 2.6; I 1.76
C23: I 2.11; A 2.23; M 2.41; S 2.67; P 2.43; D 3.36; H 2.17; Y 2.33; T 2.37; G 2.65; V 1.85; N 1.91
L8: A 2.38; Y 1.53; K 2.38; H 2.97; P 2.75; I 2.41; F 2.58; E 2.73; Q 2.11; G 2.97; V 2.16; W 1.7; T 2.09; C 2.08; S 2.47
P22: F 1.8; K 2.18; I 1.72; S 2.33; M 1.5; G 2.15; R 2.39; W 1.13; Q 2.5; E 2.27; V 1.8
R24: I 1.65; C 1.77; M 2.8; Q 2.57; K 2.65; P 2.35; F 1.75; S 2.13; H 1.69; E 2.14; D 1.6; L 1.6; Y 1.67; T 3.87
P20: E 1.32; C 2.51; D 1.81; Y 1.44; A 1.98; I 2.22; R 2.07; S 1.83; H 2.18; K 2.57; F 2.83; G 1.95
Q6: E 3.63; K 1.35; L 1.54; A 2.21; H 1.96; I 2.31; T 1.72; C 1.68; V 1.65; G 1.7; F 1.79; W 3.33; R 1.96; P 1.38; D 2.52
R12: F 2.41; C 2.3; G 2.47; V 1.93; Q 2.47; L 2.05; D 2.4; K 2.37; N 2.22; P 2.64; W 2; H 3.03; S 3.51; A 3.03; Y 1.78; M 2.33
